Measured values: patent US20230106715A1 (BIOSION, published 2023)

Tests used:
[1] = target: T1, human Siglec15 on human-siglec15-2D3-1E1 cells (human, UniProt Q6ZMC9 20-328); assay: cell based binding FACS on human-siglec15-2D3-1E1 cells
T1 construct: whole, on cells; Transfected HEK-293 cells; also called cell surface human Siglec15
T1 sequence (looked up): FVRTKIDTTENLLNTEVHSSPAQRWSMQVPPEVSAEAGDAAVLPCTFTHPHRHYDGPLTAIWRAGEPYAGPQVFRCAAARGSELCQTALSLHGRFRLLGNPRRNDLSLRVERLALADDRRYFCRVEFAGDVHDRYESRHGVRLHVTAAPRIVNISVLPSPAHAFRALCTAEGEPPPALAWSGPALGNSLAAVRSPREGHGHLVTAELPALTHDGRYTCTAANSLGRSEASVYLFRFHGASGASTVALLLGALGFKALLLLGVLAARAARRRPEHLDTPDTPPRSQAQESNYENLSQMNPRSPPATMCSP
Experimental: The binding activities of the anti-Siglec15 antibodies to cell surface Siglec15 were tested by flow cytometry (FACS), using in-house prepared human-siglec15-2D3-1E1 cells expressing human Siglec15 (amino acid residues Met1-Pro328 of uniprot #Q6ZMC9) on cell membranes. The human-siglec15-2D3-1E1 cells were prepared by transfecting HEK-293 cells (ATCC #CRL-1573) with pCMV-T-P plasmids inserted with human Siglec15 coding sequence between EcoRI and XbaI sites, following the instruction of lipofectamine 3000 transfection reagent (Thermo Fisher). The human-siglec15-2D3-1E1 cells were harvested from cell culture flasks, washed twice and re-suspended in phosphate buffered saline (PBS) containing 2% v/v Fetal Bovine Serum (FACS buffer). 2×10⁵ cells per well in 96 well-plates were incubated in 100 μL serially diluted anti-Siglec15 antibodies or controls (starting at 66.67 nM, 5-fold serial dilution) in FACS buffer for 40 minutes on ice. […] Following a 40-minute incubation at 4° C. in dark, cells were washed three times and re-suspended in FACS buffer. Fluorescence was measured using a Becton Dickinson FACS Canto II-HTS equipment. Data was analyzed using Graphpad Prism software and EC₅₀ values were reported.

[2] = target: T2, mouse Siglec15-his protein (mouse); assay: indirect ELISA on coated mouse Siglec15-his
T2 construct: In house made
T2 chain: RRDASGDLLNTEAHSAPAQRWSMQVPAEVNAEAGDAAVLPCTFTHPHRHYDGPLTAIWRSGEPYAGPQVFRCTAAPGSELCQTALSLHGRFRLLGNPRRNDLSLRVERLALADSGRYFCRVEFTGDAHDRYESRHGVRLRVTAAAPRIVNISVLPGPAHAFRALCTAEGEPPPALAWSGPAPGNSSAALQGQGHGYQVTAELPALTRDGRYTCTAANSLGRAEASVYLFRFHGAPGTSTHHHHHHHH
Experimental: The anti-Siglec15 antibodies' cross-reactions to cynomolgus or mouse Siglec15 proteins were measured. Briefly, 96-well micro plates were coated with 100 μl of 2 μg/ml cynomolgus Siglec15-his protein (in house made with SEQ ID NO: 21), or 2 μg/ml mouse Siglec15-his protein (in house made with SEQ ID NO: 22) in carbonate/bicarbonate buffer (pH 9.6) for 2 hours at 37° C. ELISA plates were washed once with wash buffer (PBS+0.05% v/v Tween-20, PBST) and then blocked with 200 μl/well blocking buffer (5% w/v non-fatty milk in PBST) overnight at 4° C. Plates were washed 4 times and incubated with 100 μl serially diluted anti-Siglec15 antibodies of the disclosure or controls (starting at 66.7 nM, 5-fold serial dilution in PBST with 2.5% w/v non-fatty milk) for 40 minutes at 37° C. ELISA plates were washed 4 times again and incubated with Peroxidase AffiniPure Goat Anti-Human IgG, F(ab)₂ fragment specific (1:5000 dilution in PBST buffer, Jackson Immunoresearch, Cat #109-035-097, 100 μl/well) for 40 minutes at 37° C. After a final wash, plates were incubated with 100 μl/well TMB (Innoreagents, Cat #TMB-S-002). The reaction was stopped 4 minutes later at room temperature with 50 μl 1M H₂SO₄, and the absorbance of each well was read on a microplate reader using dual wavelength mode with 450 nm for TMB and 630 nm as the reference wavelength, then the OD (450-630) values were plotted against antibody concentration. Data was analyzed using Graphpad Prism software and EC₅₀ values were reported.

[3] = target: T2, mouse Siglec15-his protein; assay: SPR Biacore T200, antibody captured by anti-mouse IgG, antigen as analyte, 1:1 fit
Experimental: (§1) Briefly, goat anti-mouse IgG (GE healthcare, Cat #BR100838, Mouse Antibody Capture Kit) was covalently linked to a CM5 chip (carboxy methyl dextran coated chip from GE healthcare, Cat #BR100530) via primary amines using a standard amine coupling kit (GE healthcare, Pittsburgh, Pa., USA) provided by Biacore. Un-reacted moieties on the biosensor surface were blocked with ethanolamine. The purified mouse anti-Siglec15 antibodies of the disclosure at the concentration of 13.3 nM, were respectively flowed onto the chip at a flow rate of 10 μL/min. Then, serially diluted human Siglec15-his protein (in house made, amino acid sequence set forth in SEQ ID NO: 20), cynomolgus monkey Siglec15-his protein (in house made, amino acid sequence set forth in SEQ ID NO: 21), or mouse Siglec15-his protein (in house made, amino acid sequence set forth in SEQ ID NO: 22), 2-fold dilution in HBS-EP⁺ buffer (provided by Biacore) starting at 80 nM, were flowed onto the chip at a flow rate of 30 μL/min. The antigen-antibody association kinetics was followed for 2 minutes and the dissociation kinetics was followed for 10 minutes. The association and dissociation curves were fit to a 1:1 Langmuir binding model using BIAcore evaluation software.

[4] = target: T3, cynomolgus monkey Siglec15-his protein (cynomolgus monkey); assay: as above
T3 construct: In house made; also called Cynomolgus Siglec15-his; cynomolgus Siglec15
T3 chain: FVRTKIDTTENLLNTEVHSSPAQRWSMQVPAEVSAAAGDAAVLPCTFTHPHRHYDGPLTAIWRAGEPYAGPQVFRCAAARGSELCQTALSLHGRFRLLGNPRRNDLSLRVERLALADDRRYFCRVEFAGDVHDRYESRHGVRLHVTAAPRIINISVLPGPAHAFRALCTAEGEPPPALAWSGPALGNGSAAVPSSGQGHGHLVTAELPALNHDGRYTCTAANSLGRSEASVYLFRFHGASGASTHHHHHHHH
Experimental: as §1

Row | Binder | EC50 [1] [nM] | EC50 [2] [nM] | Kd [3] [nM] | koff [3] [s⁻¹] | kon [3] [M⁻¹ s⁻¹] | Kd [4] [nM] | koff [4] [s⁻¹] | kon [4] [M⁻¹ s⁻¹]
1 | anti-Siglec15 benchmark (ch5G12) (antibody, human IgG1, kappa, V domains shown, ch5G12 (US 20190202912A1); also called BM; Siglec15-ch5G9) VH: QVQLQQPGAELVKPGASVKMSCKASGYTFTSYWITWVIQRPGQGLEWIGDIYCGSDTMHYNEKFKNKATLTVDTSSSTAYMQLSSLTSEDSAVYYCARWWDYGSSYDYFDYWGQGTTLTVSS VL: DIKMTQSPSSMYASLGERVTITCKASQDINSYLSWFQQKPGKSPKTLIYRANRLVDGVPSRFSGSGSGQDYSLTISSLEYEDMGIYYCLQYDEFPYTFGGGTKLEIKR | 0.877 | 0.361 |  |  |  |  |  | 
2 | A2A5C7E8 (antibody, V domains shown, Fully human antibody from transgenic mouse hybridoma; also called A2A5C7E8-1) VH: EVQLVQSGAEVKKPGESLRISCKGSGYSFTTYWISWVRQMPGKGLEWMGLIDPSDSYTNYSPSFQGHVTISTDKSISTAYLQWSSLKASDTAMYYCARGGYYGSEEDYWGQGTLVTVSS VL: EIVLTQSPGTLSLSPGERATLSCRASQSVSSSRLAWFQQKSGQAPRLLIFDASSRATGIPDRFSGSGSGTDFTLTISRLEPEDFAVYYCQQYGSSPRTFGQGTKVEFK | 1.17 | 0.26 |  |  |  |  |  | 
3 | A2A5C7E8-2 (antibody, human IgG1, kappa, V domains shown, Variant of A2A5C7E8 modified in VH CDR2 (X1 = E)) VH: EVQLVQSGAEVKKPGESLRISCKGSGYSFTTYWISWVRQMPGKGLEWMGLIDPSESYTNYSPSFQGHVTISTDKSISTAYLQWSSLKASDTAMYYCARGGYYGSEEDYWGQGTLVTVSS VL: EIVLTQSPGTLSLSPGERATLSCRASQSVSSSRLAWFQQKSGQAPRLLIFDASSRATGIPDRFSGSGSGTDFTLTISRLEPEDFAVYYCQQYGSSPRTFGQGTKVEFKR | 1.47 |  |  |  |  |  |  | 
4 | A2A5C7E8-3 (antibody, human IgG1, kappa, V domains shown, Variant of A2A5C7E8 modified in VH CDR2 (X2 = K)) VH: EVQLVQSGAEVKKPGESLRISCKGSGYSFTTYWISWVRQMPGKGLEWMGLIDPSDSYTNYSPSFKGHVTISTDKSISTAYLQWSSLKASDTAMYYCARGGYYGSEEDYWGQGTLVTVSS VL: EIVLTQSPGTLSLSPGERATLSCRASQSVSSSRLAWFQQKSGQAPRLLIFDASSRATGIPDRFSGSGSGTDFTLTISRLEPEDFAVYYCQQYGSSPRTFGQGTKVEFKR | 1.08 |  |  |  |  |  |  | 
5 | B2D7H7A3C1 (antibody, V domains shown, Mouse monoclonal antibody from hybridoma; also called mouse B2D7H7A3C1) VH: QVQLQQSGAELVRPGTSVQMSCKAAGYTFTNYWIGWVKQRPGHGLEWVGDIHPGINYTNNNEKFRGKATLTADTSSNTAYMQLRGLTSDDSAIYYCARVDYDYDGSYIMDYWGQGTSVTVSS VL: QIVLSQSPALLSASPGEKVTMTCRASSSVSYMYWYQQKPGSSPKPWIYATSNLTSGVPARFSGSGSGTSYSLTISRVEAEDAATYFCQQWNSKPWTFGGGSKLEIR |  |  | 0.337 | 0.00445 | 1.32e+07 | 0.476 | 0.000338 | 711000
6 | B2G12H3E8 (antibody, V domains shown, Mouse monoclonal antibody from hybridoma; also called mouse B2G12H3E8) VH: QVQLKQSGAELVRPGTSVQMSCKAVGYTFTNYWIGWVKQRPGHGLEWVGDIHPGINYTNNNEKFRGKATLTADTSSSTAYMQLRGLTSDDSAIYYCARVDYDYDGSYIMDYWGQGTSVTVSS VL: QIVLSQSPALLSASPGEKVTMTCRASSSVSYMYWYQQKPGSSPKPWIYATSNLTSGVPARFSGSGSGTSYSLTISRVEAEDAATYFCQQWNSKPWTFGGGSKLEIR |  |  | 0.423 | 0.0108 | 2.55e+07 | 0.372 | 0.000371 | 996000
7 | B2H2H1H7 (antibody, V domains shown, Mouse monoclonal antibody from hybridoma; also called mouse B2H2H1H7; B2H2H1A7) VH: QVQLQQSGAELVRPGTSVQMSCKAAGYTFTNYWIGWVKQRPGHGLEWVGDIHPGINYTNNNEKFRGKATLTADTSSSTAYMQLRGLTSDDSAIYYCARVDYDYDGSYIMDYWGQGTSVTVSS VL: QIILSQSPALLSASPGEKVTMTCRASSSVSYMYWYQQKPGSSPKPWIYATSNLTSGVPARFSGSGSGTSYSLTISRVEAEDAATYFCQQWNSKPWTFGGGSRLEIR |  |  | 0.39 | 0.00737 | 1.89e+07 | 0.405 | 0.000352 | 869000
8 | A1E10G7H9 (antibody, V domains shown, Fully human antibody from transgenic mouse hybridoma) VH: QVQLQESGPGLVKPSGTLSLTCAVSGGSISSSNWWHWVRQPPGKGLEWIGEIYHSGNTNYKPSLKSRVTISVDKSKNQFSLKLSSVTAADTAVYYCARDEGNGWSNAFDIWGQGTMVTVSS VL: ENVLTQSPGTLSLSPGERVTLSCRASQSVSSSYLAWYQQKPGQAPRFLIYGASGGATGIPDRFSGSGSGTDFTLTISRLEPEDFAVYYCQQYGSSPITFGQGTRLEIK |  | 0.329 |  |  |  |  |  | 
